Numbered stars: 1 amine (or outer) side, 2 acyl side, 3 side chain; on linkers, the order of the positions; unused ones are H or OH. Square brackets hold non-standard residues; d marks the D form. Ends that are not written are not given here. * marks the point of attachment. Tap(Ae) = (2S,4R)-4-(2-aminoethylamino)pyrrolidine-2-carboxylic acid, O=C([C@@H]1C[C@@H](NCCN[*:3])CN1[*:1])[*:2]; dap(6263)2 = (R)-2-amino-3-(bis(2-aminoethyl)amino)propanoic acid, NCCN(CCN[*:3])C[C@@H](N[*:1])C(=O)[*:2]; Tap(Ap) = 4-(3-amino-propylamino)-pyrrolidine-2-carboxylic acid; Pro(trans-4-NH2) = O=C([C@@H]1C[C@@H](N[*:3])CN1[*:1])[*:2]; Sni = (S)-nipecotic acid, O=C([C@H]1CCCN([*:1])C1)[*:2]; Oic = O=C(O)[C@@H]1C[C@@H]2CCCC[C@@H]2N1; dDap(Me2) = CN(C)C[C@@H](N)C(=O)O; Hyp = O=C(O)[C@@H]1C[C@@H](O)CN1; Dap(Me2) = CN(C)C[C@H](N)C(=O)O; NMeL = CN[C@@H](CC(C)C)C(=O)O; AR‑201‑58 = not defined here; AR‑201‑59 = not defined here; AR‑201‑62 = not defined here; AR‑201‑69 = not defined here; Tle = CC(C)(C)[C@H](N)C(=O)O; Pip = O=C(O)[C@@H]1CCCCN1; Ac6c = NC1(C(=O)O)CCCCC1; Nle = CCCC[C@H](N)C(=O)O; Octanoyl = CCCCCCCC(=O)*; dDap = NC[C@@H](N)C(=O)O; Api = NC1(C(=O)O)CCNCC1; Et2 = not defined here; Hexanoyl = CCCCCC(=O)*; Nbt = 4-butyl-thiazole; Sbt = 5-butyl-thiazole; Occ = octanoic acid
T1: natriuretic peptide receptor-B (human)
T1 chain: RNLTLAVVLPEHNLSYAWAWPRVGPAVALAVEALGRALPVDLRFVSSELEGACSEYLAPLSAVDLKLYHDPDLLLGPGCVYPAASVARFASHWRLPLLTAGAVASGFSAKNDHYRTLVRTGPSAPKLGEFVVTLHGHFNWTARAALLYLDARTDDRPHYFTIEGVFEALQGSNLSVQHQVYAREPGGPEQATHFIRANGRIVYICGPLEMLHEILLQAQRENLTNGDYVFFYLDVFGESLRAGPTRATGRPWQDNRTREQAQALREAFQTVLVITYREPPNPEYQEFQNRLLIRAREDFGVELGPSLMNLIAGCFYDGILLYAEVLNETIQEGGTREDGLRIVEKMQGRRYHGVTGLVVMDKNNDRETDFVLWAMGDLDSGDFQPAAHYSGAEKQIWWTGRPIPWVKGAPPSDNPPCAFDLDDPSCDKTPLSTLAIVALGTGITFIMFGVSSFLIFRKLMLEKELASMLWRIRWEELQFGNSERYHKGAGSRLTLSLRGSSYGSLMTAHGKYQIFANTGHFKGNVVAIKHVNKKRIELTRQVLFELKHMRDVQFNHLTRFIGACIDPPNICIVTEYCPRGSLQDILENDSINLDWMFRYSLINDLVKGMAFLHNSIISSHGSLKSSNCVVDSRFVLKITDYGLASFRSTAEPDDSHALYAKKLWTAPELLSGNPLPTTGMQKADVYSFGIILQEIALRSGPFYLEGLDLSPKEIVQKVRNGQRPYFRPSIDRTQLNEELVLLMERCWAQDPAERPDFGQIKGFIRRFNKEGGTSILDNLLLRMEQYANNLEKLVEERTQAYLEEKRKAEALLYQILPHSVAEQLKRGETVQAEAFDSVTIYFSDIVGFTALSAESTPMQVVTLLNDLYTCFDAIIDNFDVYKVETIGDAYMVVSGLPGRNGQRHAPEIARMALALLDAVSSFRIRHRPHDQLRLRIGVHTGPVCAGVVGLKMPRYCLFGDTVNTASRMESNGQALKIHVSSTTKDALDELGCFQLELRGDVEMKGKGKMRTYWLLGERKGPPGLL

B1: JAL-1339 (peptide)
peptide: [AR‑201‑58]F[dR]L[Hyp][NMeL]DRI-NH2
modifications: reading uncertain; also: printed as (AR-201-58)-Phe-arg-Leu-Hyp-Nml-Asp-Arg-Ile-NH2
B2: JAL-1340 (peptide)
peptide: [AR‑201‑59]F[dR]L[Hyp][NMeL]DRI-NH2
modifications: reading uncertain; also: printed as (AR-201-59)-Phe-arg-Leu-Hyp-Nml-Asp-Arg-Ile-NH2
B3: JAL-1341 (peptide)
peptide: [AR‑201‑62]F[dR]L[Hyp][NMeL]DRI-NH2
modifications: reading uncertain; also: printed as (AR-201-62)-Phe-arg-Leu-Hyp-Nml-Asp-Arg-Ile-NH2
B4: JAL-1342 (peptide)
peptide: [AR‑201‑69]F[dR]L[Hyp][NMeL]DRI-NH2
modifications: reading uncertain; also: printed as (AR-201-69)-Phe-arg-Leu-Hyp-Nml-Asp-Arg-Ile-NH2
B5: JAL-0647 (peptide)
peptide: XXFGLKLDRI
HELM: PEPTIDE1{[CCCCCC(=O)[*:2]].[O=C(c1cccc(CN[*:1])c1)[*:2]].F.G.L.K.L.D.R.I.[am]}$$$$V2.0
SMILES: CCCCCC(=O)NCc1cccc(C(=O)N[C@@H](Cc2ccccc2)C(=O)NCC(=O)N[C@@H](CC(C)C)C(=O)N[C@@H](CCCCN)C(=O)N[C@@H](CC(C)C)C(=O)N[C@@H](CC(=O)O)C(=O)N[C@@H](CCCNC(=N)N)C(=O)N[C@H](C(N)=O)[C@@H](C)CC)c1
B6: JAL-1348 (peptide)
peptide: Octanoyl-[Sni]F[dL]L[Pro(trans-4-NH2)](Et2)[NMeL]DRI-NH2
modifications: reading uncertain; also: printed as Occ-Sni-Phe-leu-Leu-Tap(Et2)-Nml-Asp-Arg-Ile-NH2
B7: JAL-0648 (peptide)
peptide: XXFGLKLDRI
HELM: PEPTIDE1{[CCCCCC(=O)[*:2]].[O=C(c1ccc(CN[*:1])cc1)[*:2]].F.G.L.K.L.D.R.I.[am]}$$$$V2.0
SMILES: CCCCCC(=O)NCc1ccc(C(=O)N[C@@H](Cc2ccccc2)C(=O)NCC(=O)N[C@@H](CC(C)C)C(=O)N[C@@H](CCCCN)C(=O)N[C@@H](CC(C)C)C(=O)N[C@@H](CC(=O)O)C(=O)N[C@@H](CCCNC(=N)N)C(=O)N[C@H](C(N)=O)[C@@H](C)CC)cc1
B8: JAL-0649 (peptide)
peptide: XXFGLKLDRI
HELM: PEPTIDE1{[CCCCCC(=O)[*:2]].[O=C(Cc1cccc(N[*:1])c1)[*:2]].F.G.L.K.L.D.R.I.[am]}$$$$V2.0
SMILES: CCCCCC(=O)Nc1cccc(CC(=O)N[C@@H](Cc2ccccc2)C(=O)NCC(=O)N[C@@H](CC(C)C)C(=O)N[C@@H](CCCCN)C(=O)N[C@@H](CC(C)C)C(=O)N[C@@H](CC(=O)O)C(=O)N[C@@H](CCCNC(=N)N)C(=O)N[C@H](C(N)=O)[C@@H](C)CC)c1
B9: JAL-1373 (peptide)
peptide: [AR‑201‑58]F[dL]L[Hyp][NMeL]DRI-NH2
modifications: reading uncertain; also: printed as (AR-201-58)-Phe-leu-Leu-Hyp-Nml-Asp-Arg-Ile-NH2
B10: JAL-1374 (peptide)
peptide: [AR‑201‑62]F[dL]L[Hyp][NMeL]DRI-NH2
modifications: reading uncertain; also: printed as (AR-201-62)-Phe-leu-Leu-Hyp-Nml-Asp-Arg-Ile-NH2

Target: T1, natriuretic peptide receptor-B
Experiment: cell-based or functional assay

Hexanoyl-S[dP]FGLKLDRI-NH2 [JAL-0638] and [Occ][dA]F[Api]L[Hyp][NMeL]DRI-NH2 [JAL-1338] cannot be ordered by “EC50 group, cGMP in GTM-3 cells” value: at most 15 µM for the first, at most 1 µM for the second.

B1 and B2 cannot be ordered by “EC50 group, cGMP in GTM-3 cells” value: at most 15 µM for the first, at most 15 µM for the second.

B3 and B4 cannot be ordered by “EC50 group, cGMP in GTM-3 cells” value: at most 5 µM for the first, at most 5 µM for the second.

[Sbt][Sni]F[dR]L[Hyp][NMeL]DRI-NH2 [JAL-1343] and [Nbt][Sni]F[dR]L[Hyp][NMeL]DRI-NH2 [JAL-1344] cannot be ordered by “EC50 group, cGMP in GTM-3 cells” value: at most 1 µM for the first, at most 5 µM for the second.

[Sbt][dA]F[dR]L[Hyp][NMeL]DRI-NH2 [JAL-1345] and Nbt-[dA]F[dR]L[Hyp][NMeL]DRI-NH2 [JAL-1346] cannot be ordered by “EC50 group, cGMP in GTM-3 cells” value: at most 15 µM for the first, at most 15 µM for the second.

Octanoyl-[dA]F[dDap](Me2)L[Pro(trans-4-NH2)][NMeL]DRI-NH2 [JAL-1347] and B5 cannot be ordered by “EC50 group, cGMP in GTM-3 cells” value: at most 5 µM for the first, at most 15 µM for the second.

B6 and Octanoyl-[Sni]F[dL]L[Pro(trans-4-NH2)](Et)[NMeL]DRI-NH2 [JAL-1349] cannot be ordered by “EC50 group, cGMP in GTM-3 cells” value: at most 5 µM for the first, at most 1 µM for the second.

Octanoyl-[dA]F[Api]L[Pro(trans-4-NH2)][NMeL]DRI-NH2 [JAL-1350] and [Occ][Sni]F[Api]L[Pro(trans-4-NH2)][NMeL]DRI-NH2 [JAL-1351] cannot be ordered by “EC50 group, cGMP in GTM-3 cells” value: at most 1 µM for the first, at most 1 µM for the second.

Octanoyl-[dA]F[dL]L[Hyp][NMeL]DR[Tle]-NH2 [JAL-1352] and Octanoyl-[dA]F[dL]L[Hyp][NMeL]DR[Ac6c]-NH2 [JAL-1358] cannot be ordered by “EC50 group, cGMP in GTM-3 cells” value: at most 1 µM for the first, at most 1 µM for the second.

Octanoyl-[dA]F[dR]L[Hyp][NMeL]DR[Ac6c]-NH2 [JAL-1359] and Octanoyl-[dA]F[dL]L[Hyp][NMeL]D[Nle]I-NH2 [JAL-1360] cannot be ordered by “EC50 group, cGMP in GTM-3 cells” value: at most 5 µM for the first, at most 15 µM for the second.

Octanoyl-[dA]F[dR]L[Hyp][NMeL]D[Nle]I-NH2 [JAL-1361] and Octanoyl-[dA]F[dR]L[Hyp][NMeL]IRI-NH2 [JAL-1362] cannot be ordered by “EC50 group, cGMP in GTM-3 cells” value: at most 15 µM for the first, at most 15 µM for the second.

B7 and Octanoyl-[dA]F[dL]L[Hyp][NMeL]IRI-NH2 [JAL-1363] cannot be ordered by “EC50 group, cGMP in GTM-3 cells” value: at most 15 µM for the first, at most 5 µM for the second.

Octanoyl-[dA]F[dR]L[Hyp][Oic]DRI-NH2 [JAL-1364] and Octanoyl-[dA]F[dR]L[Hyp][Pip]DRI-NH2 [JAL-1365] cannot be ordered by “EC50 group, cGMP in GTM-3 cells” value: at most 5 µM for the first, at most 15 µM for the second.

Octanoyl-[dA]F[dL]L[Hyp][Pip]DRI-NH2 [JAL-1366] and Octanoyl-[dA]F[dL]L[Hyp][Dap(Me2)]DRI-NH2 [JAL-1367] cannot be ordered by “EC50 group, cGMP in GTM-3 cells” value: at most 5 µM for the first, at most 1 µM for the second.

Octanoyl-[dA]F[dL][Dap(Me2)][Hyp][NMeL]DRI-NH2 [JAL-1368] and Octanoyl-[Sni]F[dDap(Me2)]L[Pro(trans-4-NH2)][NMeL]DRI-NH2 [JAL-1369] cannot be ordered by “EC50 group, cGMP in GTM-3 cells” value: at most 5 µM for the first, at most 1 µM for the second.

[Occ][Sni]F[dap(6263)2]L[Pro(trans-4-NH2)][NMeL]DRI-NH2 [JAL-1370] and Octanoyl-[Sni]F[dL]L[Tap(Ae)][NMeL]DRI-NH2 [JAL-1371] cannot be ordered by “EC50 group, cGMP in GTM-3 cells” value: at most 5 µM for the first, at most 1 µM for the second.

Octanoyl-[Sni]F[dL]L[Tap(Ap)][NMeL]DRI-NH2 [JAL-1372] and B8 cannot be ordered by “EC50 group, cGMP in GTM-3 cells” value: at most 1 µM for the first, at most 15 µM for the second.

B9 and B10 cannot be ordered by “EC50 group, cGMP in GTM-3 cells” value: at most 5 µM for the first, at most 5 µM for the second.

— US9187525B2, “Methods of treating ophthalmic diseases using NPR-B agonists” (Shire Orphan Therapies GmbH, dated 2015)
